These results are taken from PMC12192683, “The LDL receptor-related protein 1 (LRP1) facilitates ACE2-mediated endocytosis of SARS-CoV2 spike protein-containing pseudovirions” (The Journal of Biological Chemistry, 2025).

The chains are these.
B1: Soluble form of the VLDL receptor containing repeats 1 to 8 (domain or fragment)
chain: not shown
notes: also called VLDLR 1 to 8; recombinant soluble VLDLR
B2: LRP1 cluster III (domain or fragment)
chain: not shown
B3: LRP1 cluster II (domain or fragment)
chain: PQCQPGEFACANSRCIQERWKCDGDNDCLDNSDEAPALCHQHTCPSDRFKCENNRCIPNRWLCDGDNDCGNSEDESNATCSARTCPPNQFSCASGRCIPISWTCDLDDDCGDRSDESASCAYPTCFPLTQFTCNNGRCININWRCDNDNDCGDNSDEAGCSHSCSSTQFKCNSGRCIPEHWTCDGDNDCGDYSDETHANCTNQATRPPGGCHTDEFQCRLDGLCIPLRWRCDGDTDCMDSSDEKSCEGVTHVCDPSVKFGCKDSARCISKAWVCDGDNDCEDNSDEENCESLACRPPSHPCANNTSVCLPPDKLCDGNDDCGDGSDEGELC
B4: LRP1 cluster IV (domain or fragment)
chain: not shown

The target of the assay is T1, SARS-CoV-2 spike protein S1 subunit (Val16-Arg685) fused to the Fc region of mouse IgG1 (SARS-CoV-2, UniProt P0DTC2 16-685).
T1 construct: The SPR methods name S1-mFc for LRP1, VLDLR and LRP2; I took it as the S1 subunit of all SPR experiments; also called S1-mFc; Spike S1 subunit; source: bought: Sino Biological; not shown: Fc (mouse IgG1), C-terminal, kept
In words: SPR; Biacore 3000; receptor amine-coupled to CM5 chip; ligand flowed in HBS-P (0.01 M HEPES pH 7.4, 0.15 M NaCl, 0.005% P20) with 1 mM CaCl2, 10 ul/min, 25 C; kinetic fit to a 1:1 Langmuir model. The settings on record: both partners purified.
One may read the Kd as the free concentration of one partner at which half of the binding sites on the other are occupied at equilibrium, for simple one-to-one binding. A higher Kd goes with lower affinity. A word on the koff: it is the rate constant with which the complex falls apart. Read a high koff as fast dissociation. What is called kon is the rate constant with which the complex forms. The low end stands for slow association, the high end for fast association. For B1, the Kd was 5 nM, the koff was determined as 0.00027 s⁻¹ and the association rate constant (kon) is 110000 M⁻¹ s⁻¹.

B2 gave a Kd of 22 nM, a koff of 0.00027 s⁻¹ and a kon of 12000 M⁻¹ s⁻¹.

B3 returned a Kd of 33 nM, an off-rate (koff) of 0.00042 s⁻¹ and a kon of 13000 M⁻¹ s⁻¹.

Consider B4, for which binding was characterised by a dissociation constant (Kd) of 67 nM, the koff was determined as 0.00066 s⁻¹ and the on-rate constant (kon) worked out at 9800 M⁻¹ s⁻¹.
